Experimental data published in paper PMC3888107.
pKd: −log10 of the molar value.

Experiments:
[1] = biological target: PR20, extreme drug-resistant mutant of mature HIV-1 protease (HIV-1); experiment: enzyme activity against protease concentration
[2] = biological target: PR, mature HIV-1 protease containing the mutations Q7K, L33I, L63I, C67A, C95A (HIV-1); experiment: differential scanning calorimetry
[3] = biological target: ScPR, single-chain dimer of two PR monomers linked by a GGSSG sequence (HIV-1); experiment: differential scanning calorimetry

Substance | pKd [1] | ΔTm (I), Tm(+inhibitor)-Tm(−inhibitor) [2] [°C] | ΔTm (I), Tm(+inhibitor)-Tm(−inhibitor) [3] [°C]
PR20, extreme drug-resistant mutant of mature HIV-1 protease (enzyme) | 7.54 |  | 
RPB, substrate (CA/SP1) analogue inhibitor H-Arg-Val-Leu-(r)-Phe-Glu-Ala-Nle-NH2 (peptide) |  | 9.2 | 7.8
